Experimental data reported in publication PMC9256704 (2022).

Target: T1, recombinant TRIB2 protein (TP301210, OriGene), biotinylated (human, UniProt Q92519 1-343, biotinylated)
T1 chain: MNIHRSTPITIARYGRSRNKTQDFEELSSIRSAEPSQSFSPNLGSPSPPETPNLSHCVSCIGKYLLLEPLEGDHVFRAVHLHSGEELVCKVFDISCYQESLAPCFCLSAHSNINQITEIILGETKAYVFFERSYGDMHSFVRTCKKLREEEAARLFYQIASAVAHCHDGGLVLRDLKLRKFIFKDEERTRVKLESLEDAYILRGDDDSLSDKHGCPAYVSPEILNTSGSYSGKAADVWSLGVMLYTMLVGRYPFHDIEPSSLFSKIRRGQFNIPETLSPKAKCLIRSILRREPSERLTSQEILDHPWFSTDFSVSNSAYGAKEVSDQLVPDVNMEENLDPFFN
Test: BLI

B1: PKM2 (ab89364, Abcam) (natural protein)
chain: not shown
Binder B1 has a koff of 0.0175 s⁻¹.
